The first assay addresses HLA-A*01:01. Briefly: IEDB peptide-MHC binding, purified MHC/competitive/fluorescence; filed as Kd, often an IC50 or EC50 that approximates it; ≥ and ≤ were set here for values at or beyond the usual limits of such assays. The note with it: source organism: Coxiella burnetii.
One may read the Kd as the equilibrium constant for the complex coming apart. ETYNSINKY: the dissociation constant Kd was ≥ 1000 µM.

Take FFEDFTHRY: the Kd is ≥ 1000 µM.

For HTYYLIGFLY, the dissociation constant Kd is ≥ 50 µM.

For the sequence KTEQDKLSY, the Kd was ≥ 50 µM.

Regarding LTLLLNWVNY, the Kd is ≥ 50 µM.

For MVEEKYNYFY, the Kd is ≥ 5 µM.

For QSGWTIHHY, the Kd is ≥ 1000 µM.

SLESGFTYY: the Kd was ≥ 5 µM.

On to VSDATVAKWY, for which the dissociation constant (Kd) was ≥ 50 µM.

With VTLVEFFDY, the Kd is ≥ 1000 µM.

A further assay has as its target HLA-A*02:01. Described as above. The note with it: source organism: Coxiella burnetii.
For the sequence FLFFYSGLIL, the Kd was ≥ 5 µM.

Consider FLIAVFARHL, for which the dissociation constant (Kd) is ≥ 5 µM.

For the sequence IMIDRLIEQL, the Kd was ≥ 5 µM.

As to LLWHGVSTL, the Kd is ≥ 5 µM.

Turning to MLWLPLLLIL, the equilibrium dissociation constant (Kd) was ≥ 5 µM.

With NMFQHLPYL, the dissociation constant Kd was ≥ 5 µM.

Take RMYISFFPL: the Kd was ≥ 5 µM.

For VIDDLIVYRV, the dissociation constant (Kd) is ≥ 50 µM.

With YLLDRCPFL, the Kd was ≥ 5 µM.

Take YLVNHPEVL: the dissociation constant (Kd) was ≥ 50 µM.

Another assay deals with HLA-A*03:01. The assay is described as above. The note with it: source organism: Coxiella burnetii.
In the case of ASFQNYLNDY, the Kd is ≥ 1000 µM.

As to ATSNLIYKLK, the Kd is ≥ 5 µM.

Consider GVDRFITYK, for which the dissociation constant Kd is ≥ 5 µM.

ISYDRFTVGK: the equilibrium dissociation constant (Kd) was ≥ 5 µM.

Regarding KLILFVYRY, the dissociation constant (Kd) was ≥ 50 µM.

In the case of KTFVYPMGLY, the Kd was ≥ 5 µM.

In the case of LLSTLCLYRK, the Kd is ≥ 50 µM.

In the case of LSATFITSK, the dissociation constant Kd was ≥ 5 µM.

For SLFANMNGHY, the Kd was ≥ 50 µM.

For the sequence VLDCNYLSK, the equilibrium dissociation constant (Kd) was ≥ 5 µM.

In a further assay the target is HLA-A*24:02. The description is as above. To be noted: source organism: Coxiella burnetii.
Turning to GYHSITPYLF, the Kd is ≥ 5 µM.

IYDDRLLFEF: the Kd is ≥ 5 µM.

As to LYDDEFKFL, the Kd is ≥ 5 µM.

As to NFSDYIWHF, the Kd is ≥ 5 µM.

On to QYLQYLWPL, for which the dissociation constant Kd was ≥ 5 µM.

On to SFVPKFFLTF, for which the Kd is ≥ 5 µM.

Regarding TYRHNKKLL, the Kd is ≥ 50 µM.

Consider TYRVLNYKDL, for which the Kd is ≥ 50 µM.

Consider WYVVNNNYL, for which the Kd was ≥ 5 µM.

Another assay has as its target HLA-B*07:02. Described as above. The note with it: source organism: Coxiella burnetii.
On to KPLQVINRKY, for which the Kd was ≥ 1 mM.

Consider LPQKPWWKF, for which the dissociation constant (Kd) was ≥ 1 mM.

Consider LPRNRYRLVF, for which the equilibrium dissociation constant (Kd) was ≥ 0.005 mM.

On to LPRRHNFYNY, for which the Kd is ≥ 1 mM.

In the case of SPHPRVNQF, the dissociation constant (Kd) is ≥ 0.005 mM.

As to TPDFPQLFF, the Kd was ≥ 0.05 mM.

As to TPTFVIGNKA, the dissociation constant (Kd) was ≥ 1 mM.

Another assay concerns the target HLA-B*44:02. The description is as above. The note with it: source organism: Coxiella burnetii.
Turning to EEFVKTQSY, the Kd was ≥ 5 µM.

Take FEALHLLYAL: the Kd was ≥ 1000 µM.

Regarding GEEATAFLRY, the dissociation constant (Kd) is ≥ 50 µM.

For the sequence IERVFYYFPL, the Kd is ≥ 1000 µM.

As to IEVVKKYMDY, the Kd is ≥ 1000 µM.

KDIQSIVHHY: the equilibrium dissociation constant (Kd) was ≥ 1000 µM.

For METPPQSPDF, the equilibrium dissociation constant (Kd) was ≥ 1000 µM.

In the case of MEVRDLLNSY, the dissociation constant Kd is ≥ 5 µM.

For NEIETATRY, the Kd was ≥ 5 µM.

Turning to REMYSRRRMY, the Kd was ≥ 5 µM.

The values above are taken from the Immune Epitope Database (IEDB).
